Target: T1, [FeFe]-hydrogenase CaHydA from Clostridium acetobutylicum (Clostridium acetobutylicum) (UniProt Q59262)
T1 sequence: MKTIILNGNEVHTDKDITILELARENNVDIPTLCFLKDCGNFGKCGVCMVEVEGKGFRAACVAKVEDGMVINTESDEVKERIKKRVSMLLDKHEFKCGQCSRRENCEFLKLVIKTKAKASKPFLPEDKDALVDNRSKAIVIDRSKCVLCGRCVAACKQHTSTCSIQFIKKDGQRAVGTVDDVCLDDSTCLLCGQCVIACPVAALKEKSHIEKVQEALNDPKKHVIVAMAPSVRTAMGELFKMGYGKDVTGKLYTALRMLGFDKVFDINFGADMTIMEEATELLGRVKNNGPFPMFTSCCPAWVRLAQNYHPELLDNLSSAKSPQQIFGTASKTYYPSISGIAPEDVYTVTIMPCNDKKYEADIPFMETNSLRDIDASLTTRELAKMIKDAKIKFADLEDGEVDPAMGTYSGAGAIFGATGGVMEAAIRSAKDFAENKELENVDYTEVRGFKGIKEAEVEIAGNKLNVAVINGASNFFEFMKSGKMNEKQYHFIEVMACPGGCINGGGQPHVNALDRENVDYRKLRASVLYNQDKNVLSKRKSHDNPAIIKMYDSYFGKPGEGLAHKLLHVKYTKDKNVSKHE

Work on Ac-GCGGGCGGCGGCGY-NH2 (also: [4Fe4S] cluster coordinated by the four Cys) [[4Fe4S]-peptide maquette Mq5 (Ac-…-NH2)] yielded a turnover frequency (TOF) of electron transfer from CaHydA to the Mq5 cluster in H2 oxidation, assuming cluster concentration equal to the peptide concentration of 79 s⁻¹ and a turnover frequency (TOF) of electron transfer from CaHydA to the Mq5 cluster in H2 oxidation, corrected for about 40 % cluster formation relative to FdM1 of 31 s⁻¹.
